Test results reported in article PMC9241938.

Columns and labels:
[1] = biological target: cyAbrB1 (Sll0359), N-terminally 6*His-tagged recombinant protein (Synechocystis sp. PCC 6803); test: native gel or EMSA; native SDS-PAGE (NSDS-PAGE) of the purified recombinant protein; native glycine polyacrylamide gel (15%, SDS omitted), running buffer 50 mM Tris-HCl, 200 mM glycine, 0.0375% SDS, pH 7.3, 4°C
[2] = test system: RpaB (Synechocystis sp. PCC 6803?); test: EMSA; conditions: EMSA: 12 mM HEPES, 4 mM Tris, 12 mM KCl, 1 mM EDTA, 1 mM EGTA, 12% glycerol, 1 ug poly(dIdC); 3% agarose, 0.5x TBE; pH 8.2 or 5 tested; probe 3.85 pmol …

Substance	stoichiometry N [1]	Kd [2] [µM]
cyAbrB1 (Sll0359), N-terminally 6*His-tagged recombinant protein (natural protein)	2	
TTTGCCCAATTTGACAATATATTAAGAAATCCTCATCTAACCTGTTTTTCATTGGATAATTAAAACAAGAGGAAAGATCAGGGGGCAGGAAAATAAATTACCTAATACCTAGTCCTGGTTGATAAAACCAGAGGCAGAAAACCTCCCCGTTTTCTCAAACTTGCCCAAAAGACAACTGTTGAGTTTCCCCCATTGGGACGGAGGTTATG (double strand) [PatpT66-5'UTR]		5.62
